The target of assay [1] is IpaB (invasion plasmid antigen B), affinity tag-free recombinant. As to the kind of experiment: assembly with LPS, anion-exchange purification of the complex, SDS-PAGE gel densitometry; S. flexneri 2a LPS, 1x (0.56 w LPS/w protein); 8 uM IpaC + 1 uM IpaB in 5.1 M urea, 37 C 2 h; Q Sepharose HP, eluted at 50% Buffer B; %Band of full-size IpaC divided by %Band of full-size IpaB.

For assay [2] the target is unchanged. Nature of the assay: assembly with LPS, anion-exchange purification of the complex, SDS-PAGE gel densitometry; S. flexneri 2a LPS, 8x (4.48 w LPS/w protein); 8 uM IpaC + 1 uM IpaB in 5.1 M urea, 37 C 2 h; Q Sepharose HP, eluted at 50% Buffer B; %Band ratio.
Assay [3] has the same target. As to the kind of experiment: assembly with LPS, anion-exchange purification of the complex, SDS-PAGE gel densitometry; S. flexneri 3a LPS, 8x (4.48 w LPS/w protein); 8 uM IpaC + 1 uM IpaB in 5.1 M urea, 37 C 2 h; Q Sepharose HP, eluted at 50% Buffer B; %Band ratio.
Assay [4] has the same target. As to the kind of experiment: assembly with LPS, anion-exchange purification of the complex, SDS-PAGE gel densitometry; S. sonnei LPS, 1x (0.56 w LPS/w protein); 8 uM IpaC + 1 uM IpaB in 5.1 M urea, 37 C 2 h; Q Sepharose HP, eluted at 50% Buffer B; %Band ratio.
Assay [5] has the same target. Nature of the assay: assembly with LPS, anion-exchange purification of the complex, SDS-PAGE gel densitometry; S. flexneri 6 LPS, 1x (0.56 w LPS/w protein); 8 uM IpaC + 1 uM IpaB in 5.1 M urea, 37 C 2 h; Q Sepharose HP, eluted at 50% Buffer B; %Band ratio.
The target is the same in assay [6]. As to the kind of experiment: assembly with LPS, anion-exchange purification of the complex, SDS-PAGE gel densitometry; S. flexneri 3a LPS, 4x (2.24 w LPS/w protein); 8 uM IpaC + 1 uM IpaB in 5.1 M urea, 37 C 2 h; Q Sepharose HP, eluted at 50% Buffer B; %Band ratio.
Assay [7] has the same target. As to the kind of experiment: assembly with LPS, anion-exchange purification of the complex, SDS-PAGE gel densitometry; S. sonnei LPS, 2x (1.12 w LPS/w protein); 8 uM IpaC + 1 uM IpaB in 5.1 M urea, 37 C 2 h; Q Sepharose HP, eluted at 50% Buffer B; %Band ratio.
For assay [8] the target is unchanged. Nature of the assay: assembly with LPS, anion-exchange purification of the complex, SDS-PAGE gel densitometry; S. flexneri 2a LPS, 2x (1.12 w LPS/w protein); 8 uM IpaC + 1 uM IpaB in 5.1 M urea, 37 C 2 h; Q Sepharose HP, eluted at 50% Buffer B; %Band ratio.
For assay [9] the target is unchanged. Nature of the assay: assembly with LPS, anion-exchange purification of the complex, SDS-PAGE gel densitometry; S. flexneri 3a LPS, 2x (1.12 w LPS/w protein); 8 uM IpaC + 1 uM IpaB in 5.1 M urea, 37 C 2 h; Q Sepharose HP, eluted at 50% Buffer B; %Band ratio.
Assay [10] has the same target. Nature of the assay: assembly with LPS, anion-exchange purification of the complex, SDS-PAGE gel densitometry; S. flexneri 2a LPS, 4x (2.24 w LPS/w protein); 8 uM IpaC + 1 uM IpaB in 5.1 M urea, 37 C 2 h; Q Sepharose HP, eluted at 50% Buffer B; %Band ratio.
Assay [11] shares this target. Nature of the assay: assembly with LPS, anion-exchange purification of the complex, SDS-PAGE gel densitometry; S. sonnei LPS, 8x (4.48 w LPS/w protein); 8 uM IpaC + 1 uM IpaB in 5.1 M urea, 37 C 2 h; Q Sepharose HP, eluted at 50% Buffer B; %Band ratio.
Assay [12] has the same target. Nature of the assay: assembly with LPS, anion-exchange purification of the complex, SDS-PAGE gel densitometry; S. flexneri 6 LPS, 4x (2.24 w LPS/w protein); 8 uM IpaC + 1 uM IpaB in 5.1 M urea, 37 C 2 h; Q Sepharose HP, eluted at 50% Buffer B; %Band ratio.
Assay [13] shares this target. As to the kind of experiment: assembly with LPS, anion-exchange purification of the complex, SDS-PAGE gel densitometry; S. flexneri 6 LPS, 8x (4.48 w LPS/w protein); 8 uM IpaC + 1 uM IpaB in 5.1 M urea, 37 C 2 h; Q Sepharose HP, eluted at 50% Buffer B; %Band ratio.
For assay [14] the target is unchanged. Nature of the assay: assembly with LPS, anion-exchange purification of the complex, SDS-PAGE gel densitometry; S. flexneri 6 LPS, 2x (1.12 w LPS/w protein); 8 uM IpaC + 1 uM IpaB in 5.1 M urea, 37 C 2 h; Q Sepharose HP, eluted at 50% Buffer B; %Band ratio.
Assay [15] shares this target. Nature of the assay: assembly with LPS, anion-exchange purification of the complex, SDS-PAGE gel densitometry; S. sonnei LPS, 4x (2.24 w LPS/w protein); 8 uM IpaC + 1 uM IpaB in 5.1 M urea, 37 C 2 h; Q Sepharose HP, eluted at 50% Buffer B; %Band ratio.
For assay [16] the target is unchanged. Nature of the assay: assembly with LPS, anion-exchange purification of the complex, SDS-PAGE gel densitometry; S. flexneri 3a LPS, 1x (0.56 w LPS/w protein); 8 uM IpaC + 1 uM IpaB in 5.1 M urea, 37 C 2 h; Q Sepharose HP, eluted at 50% Buffer B; %Band ratio.

B1: IpaC (invasion plasmid antigen C), affinity tag-free recombinant (natural protein)
chain: MEIQNTKPTQTLYTDISTKQTQSSSETQKSQNYQQIAAHIPLNVGKNPVLTTTLNDDQLLKLSEQVQHDSEIIARLTDKKMKDLSEMSHTLTPENTLDISSLSSNAVSLIISVAVLLSALRTAETKLGSQLSLIAFDATKSAAENIVRQGLAALSSSITGAVTQVGITGIGAKKTHSGISDQKGALRKNLATAQSLEKELAGSKLGLNKQIDTNITSPQTNSSTKFLGKNKLAPDNISLSTEHKTSLSSPDISLQDKIDTQRRTYELNTLSAQQKQNIGRATMETSAVAGNISTSGGRYASALEEEEQLISQASSKQAEEASQVSKEASQATNQLIQKLLNIIDSINQSKNSAASQIAGNIRA
Take B1: the IpaC:IpaB ratio in the complex with LPS (gel densitometry) in assay [1] was 3.8 IpaC:IpaB; in assay [2], 9.4 IpaC:IpaB; in assay [3] it was 5.8 IpaC:IpaB; in assay [4], 2.6 IpaC:IpaB; in assay [5] it was 2.1 IpaC:IpaB; in [6], 5.8 IpaC:IpaB. The IpaC:IpaB ratio in the complex with LPS (gel densitometry) in assay [7] was 5.6 IpaC:IpaB; in [8], 6.9 IpaC:IpaB; in [9], 3.8 IpaC:IpaB; in assay [10], 7.8 IpaC:IpaB; in assay [11] it was 7.2 IpaC:IpaB; in assay [12] it was 4 IpaC:IpaB. The IpaC:IpaB ratio in the complex with LPS (gel densitometry) is 3.9 IpaC:IpaB in assay [13], 4.1 IpaC:IpaB in [14], 9.4 IpaC:IpaB in assay [15] and 2.5 IpaC:IpaB in assay [16].

The values are drawn from paper PMC10449495.
